Reference: PMC4426023 (Cell reports, 2015)
One block for each molecule: values may come before it.

How the values were obtained:
[1] = biological target: DOT1L Site 1 peptide, fluorescently tagged (UniProt Q8TEK3); assay: fluorescence polarisation
[2] = biological target: DOT1L Site 2 peptide, fluorescently tagged (UniProt Q8TEK3); assay: fluorescence polarisation
[3] = biological target: T1, DOT1L repeat motif (Sites 2 and 3, aa. 863–900) (UniProt Q8TEK3 863-900); assay: SEC
T1 chain (looked up): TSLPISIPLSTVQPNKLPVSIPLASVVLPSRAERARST

DOT1L Site 1 peptide, fluorescently tagged, sequence (Q8TEK3 628-653): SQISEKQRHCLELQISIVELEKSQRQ

- Kd [1]: > 2000 nM
- fold weaker affinity than DOT1L (Site 3) [2]: 17 fold
Molecule: MBP-AF9 AHD (WT) (domain or fragment)

- stoichiometry N [3]: 2
B1: AF9 ANC1 homology domain (aa. 499–568) (domain or fragment, UniProt P42568 499-568, looked up)
chain: CDKAYLDELVELHRRLMTLRERHILQQIVNLIEETGHFHITNTTFDFDLCSLDKTTVRKLQSYLETSGTS
